Test results reported in patent EP3581587A1 (Shanghai Benemae Pharmaceutical Corporation, dated 2019).

B1: h-34F8 (antibody, human IgG4, V domains shown)
VH: QVQLQESGPGLVKPSETLSLTCTVSGFSLTTYHVHWVRQPPGKGLEWIGIMWRDGDTYYNSSLKSRVTISRDTSKNQVSLKLSSVTAADTAVYFCARGGTLTTPFTYWGQGTLVTVSS
VL: DVVLTQTPLSLPVTPGEPASISCRSSQSLESRDGNTYLEWYLQKPGQSPQVLLYGVSNRLSGVPDRFSGSGSGTDFTLKISRVEAEDVGVYYCFQATHGPFTFGQGTKLEIKR
B2: h-42A5 (antibody, human IgG4, V domains shown)
VH: QVTLKESGPVLVKPTETLTLTCTVSGFSLTSYHLHWIRQPPGKALEWMGLMWRDGDTSYNSRLKSRLTISRDTSKSQVVLTMTNMDPVDTATYYCARGMTLATPFLYWGQGTLVTVSS
VL: DVVLTQTPLSLSVTPGQPASISCRSSQSLESSDGNTYLEWYLQKPGQSPQLLIYGVSNRFSGVPDRFSGSGSGTDFTLKISRVEAEDLGVYYCFQATRDPFTFGQGTKLEIKR
B3: h-19F6 (antibody, human IgG4, V domains shown)
VH: EVQLVESGGGLVQPGRSLRLSCTASGFTFSKYAMSWVRQAPGKGLEWVSAINYDGSTTYYADSVKGRFTLSRDNSKNTLYLQMNSLRAEDTAVYYCARHPFNNFGIWFAYWGQGTLVTVS
VL: QFQLTQPSSVSASVGDRVTITCERSSGDIGDSYVSWYQQKPGQPPKNVIYADDQRPSGVPDRFSGSIDGSGNSASLTISSLQAEDAADYFCQSYDSNIDFNPVFGGGTKLEVK

These binders were tested against human activated coagulation factor XI (FXIa) (human, UniProt P03951 19-625) (assay: cell-based or functional assay).

| Binder | apparent Ki, inhibition of FXIa cleavage of chromogenic substrate S-2366 [nM] |
| --- | --- |
| B1 | 2.08 |
| B2 | 1.43 |
| B3 | 0.67 |
